Laboratory results reported in IntAct's records for PubMed 34237462.

B1: Anterior gradient protein 2 homolog (Homo sapiens), O95994 (parent)
chain: MEKIPVSAFLLLVALSYTLARDTTVKPGAKKDTKDSRPKLPQTLSRGWGDQLIWTQTYEEALYKSKTSNKPLMIIHHLDECPHSQALKKVFAENKEIQKLAEQFVLLNLVYETTDKHLSPDGQYVPRIMFVDPSLTVRADITGRYSNRLYAYEPADTALLLDNMKKALKLLKTEL

Variants of: B1
Settings: with muc2_human MUC2, Q02817

effect of a mutation on the interaction | Variant
decreasing interaction strength | MEKIPVSAFLLLVALSYTLARDTTVKPGAKKDTKDSRPKLPQTLSRGWGDQLIWTQTYEEALYKSKTSNKPLMIIHHLDECPHSQALKKVFAENKEIQKLAEQFVLLNLVYETTDKYLSPDGQYVPRIMFVDPSLTVRADITGRYSNRLYAYEPADTALLLDNMKKALKLLKTEL [H117Y]
